Our source for the activity values is patent publication US20240279630, “ISOLATED CAS13 PROTEIN AND USE THEREOF” (GUANGZHOU REFORGENE MEDICINE CO., LTD., published 2024).

Common to all, as to assay: cell_activity; reversed DR/guide order
Conditions in all cases: tags: NLS fusion

For series [1], the target named is T1, CasRfg.2 (Cas13d) (metagenome).
T1 chain: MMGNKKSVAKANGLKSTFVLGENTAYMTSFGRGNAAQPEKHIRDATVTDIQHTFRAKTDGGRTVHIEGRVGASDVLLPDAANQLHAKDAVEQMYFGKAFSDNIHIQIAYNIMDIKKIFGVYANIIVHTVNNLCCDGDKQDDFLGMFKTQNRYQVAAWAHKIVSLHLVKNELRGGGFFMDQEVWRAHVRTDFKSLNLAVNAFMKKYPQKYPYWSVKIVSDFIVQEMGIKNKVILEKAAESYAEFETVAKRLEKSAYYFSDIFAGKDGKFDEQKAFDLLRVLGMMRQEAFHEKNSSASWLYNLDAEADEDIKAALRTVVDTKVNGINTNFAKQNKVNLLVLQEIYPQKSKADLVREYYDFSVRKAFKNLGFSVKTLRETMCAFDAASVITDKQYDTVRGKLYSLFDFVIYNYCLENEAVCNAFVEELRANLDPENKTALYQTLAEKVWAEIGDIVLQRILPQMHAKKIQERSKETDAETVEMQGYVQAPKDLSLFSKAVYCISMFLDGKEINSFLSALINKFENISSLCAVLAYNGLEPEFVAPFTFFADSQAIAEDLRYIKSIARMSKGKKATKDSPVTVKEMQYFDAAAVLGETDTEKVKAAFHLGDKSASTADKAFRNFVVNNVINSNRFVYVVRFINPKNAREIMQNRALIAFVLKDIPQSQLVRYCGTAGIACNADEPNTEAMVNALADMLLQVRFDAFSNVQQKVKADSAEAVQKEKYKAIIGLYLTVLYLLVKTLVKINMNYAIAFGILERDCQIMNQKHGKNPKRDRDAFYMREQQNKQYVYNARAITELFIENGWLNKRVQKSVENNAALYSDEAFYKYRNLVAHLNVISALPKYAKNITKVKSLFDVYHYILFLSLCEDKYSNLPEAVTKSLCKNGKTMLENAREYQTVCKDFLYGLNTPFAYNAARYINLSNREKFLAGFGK
The procedure: (§1) 293T-AQp1 cells were transfected with the verification vectors targeting the endogenous gene AQp1 mRNA of Cas13 m.2, Cas13 m.3, Cas13 m.5, CasRfg.2, Cas13 m.2-r, Cas13 m.3-r, Cas13 m.5-r, and CasRfg.2-r, and a control plasmid (which was the same as the verification vector plasmid targeting the endogenous gene AQp1 mRNA of CasRx in the aforementioned Example 5) at 800 ng in a 24-well plate. The negative control group was transfected with the CasRx-BpiI plasmid in the aforementioned Example 5.
(§2) The transfection method was as follows: [0296] 1. The cells were digested by trypsin (0.25% of Trypsin, EDTA, Thermo, 11058021), counted, and plated into a 24-well plates at 2×10⁵ cells according to 500 uL per well. [0297] 2. For each transfected sample, the complex was prepared according to the following steps: [0298] a. each well of the 24-well plate into which the cells were added, were added with 50 uL of serum-free Opti-MEM I (Thermo, 25200056) reduced serum medium for dilution of the aforementioned plasmid DNA, and mixed gently; [0299] b. it was gently mixed with Lipofectamine 2000 (Thermo, 11668019) before use, and then 1.8 uL of the Lipofectamine 2000 was diluted in each well, i.e., in 50 uL of the Opti-MEM I medium. It was incubated at room temperature for 5 minutes. Note: it was continued to perform step c within 25 minutes; [0300] c. after incubation for 5 minutes, the diluted DNA was combined with the diluted Lipofectamine 2000. They were gently mixed and incubated at room temperature for 20 minutes (the solution might be cloudy visually). Note: the complex was stabilized at room temperature for 6 hours.
(§3) At 72 h after transfection, the cells were subjected to RNA extraction with a SteadyPure Universal RNA Extraction Kit AG21017 kit, and the RNA concentration was detected with an ultramicro spectrophotometer. The RNA product was reverse transcribed by using an Evo M-MLV Mix Kit with gDNA Clean for qPCR AG11728 reverse transcription kit, and the reverse transcribed product was detected by using a SYBR Green Premix Pro Taq HS qPCR Kit (Low Rox Plus) AG11720 qPCR kit.

In series [2] the target is T2, Cas13m.5 (Bacteroidetes bacterium).
T2 chain: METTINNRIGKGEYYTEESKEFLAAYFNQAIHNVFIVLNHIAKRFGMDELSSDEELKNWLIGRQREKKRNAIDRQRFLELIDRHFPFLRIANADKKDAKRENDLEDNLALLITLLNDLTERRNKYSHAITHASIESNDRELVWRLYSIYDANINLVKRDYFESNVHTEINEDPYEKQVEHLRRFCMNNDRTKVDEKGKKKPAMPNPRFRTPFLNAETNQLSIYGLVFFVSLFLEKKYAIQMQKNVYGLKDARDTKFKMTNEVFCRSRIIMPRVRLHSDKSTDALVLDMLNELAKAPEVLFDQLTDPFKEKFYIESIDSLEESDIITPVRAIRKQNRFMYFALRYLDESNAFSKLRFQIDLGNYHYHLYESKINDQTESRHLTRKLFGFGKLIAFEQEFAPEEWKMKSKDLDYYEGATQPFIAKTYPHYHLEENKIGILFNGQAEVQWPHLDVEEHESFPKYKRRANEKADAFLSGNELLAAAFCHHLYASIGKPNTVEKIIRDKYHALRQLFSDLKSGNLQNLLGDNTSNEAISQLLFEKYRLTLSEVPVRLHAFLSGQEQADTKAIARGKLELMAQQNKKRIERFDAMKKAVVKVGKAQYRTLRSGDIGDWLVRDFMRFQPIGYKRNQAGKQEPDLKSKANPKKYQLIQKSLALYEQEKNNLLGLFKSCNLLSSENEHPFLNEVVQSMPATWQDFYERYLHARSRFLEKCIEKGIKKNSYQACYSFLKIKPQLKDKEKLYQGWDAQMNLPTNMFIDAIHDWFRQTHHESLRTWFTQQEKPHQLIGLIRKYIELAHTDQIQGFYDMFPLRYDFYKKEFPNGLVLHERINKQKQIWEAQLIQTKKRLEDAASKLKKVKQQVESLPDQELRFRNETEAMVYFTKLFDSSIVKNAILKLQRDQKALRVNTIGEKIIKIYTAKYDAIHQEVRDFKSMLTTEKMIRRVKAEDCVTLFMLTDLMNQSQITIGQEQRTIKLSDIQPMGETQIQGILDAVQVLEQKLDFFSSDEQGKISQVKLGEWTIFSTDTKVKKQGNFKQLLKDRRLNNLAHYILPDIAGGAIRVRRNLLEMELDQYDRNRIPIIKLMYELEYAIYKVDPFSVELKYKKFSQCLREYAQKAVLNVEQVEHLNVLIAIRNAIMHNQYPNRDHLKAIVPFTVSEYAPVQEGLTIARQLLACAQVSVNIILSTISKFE
The procedure: as §1, §2, §3

The target in series [3] is T3, Cas13m.3 (uncultured Bacteroidetes bacterium).
T3 chain: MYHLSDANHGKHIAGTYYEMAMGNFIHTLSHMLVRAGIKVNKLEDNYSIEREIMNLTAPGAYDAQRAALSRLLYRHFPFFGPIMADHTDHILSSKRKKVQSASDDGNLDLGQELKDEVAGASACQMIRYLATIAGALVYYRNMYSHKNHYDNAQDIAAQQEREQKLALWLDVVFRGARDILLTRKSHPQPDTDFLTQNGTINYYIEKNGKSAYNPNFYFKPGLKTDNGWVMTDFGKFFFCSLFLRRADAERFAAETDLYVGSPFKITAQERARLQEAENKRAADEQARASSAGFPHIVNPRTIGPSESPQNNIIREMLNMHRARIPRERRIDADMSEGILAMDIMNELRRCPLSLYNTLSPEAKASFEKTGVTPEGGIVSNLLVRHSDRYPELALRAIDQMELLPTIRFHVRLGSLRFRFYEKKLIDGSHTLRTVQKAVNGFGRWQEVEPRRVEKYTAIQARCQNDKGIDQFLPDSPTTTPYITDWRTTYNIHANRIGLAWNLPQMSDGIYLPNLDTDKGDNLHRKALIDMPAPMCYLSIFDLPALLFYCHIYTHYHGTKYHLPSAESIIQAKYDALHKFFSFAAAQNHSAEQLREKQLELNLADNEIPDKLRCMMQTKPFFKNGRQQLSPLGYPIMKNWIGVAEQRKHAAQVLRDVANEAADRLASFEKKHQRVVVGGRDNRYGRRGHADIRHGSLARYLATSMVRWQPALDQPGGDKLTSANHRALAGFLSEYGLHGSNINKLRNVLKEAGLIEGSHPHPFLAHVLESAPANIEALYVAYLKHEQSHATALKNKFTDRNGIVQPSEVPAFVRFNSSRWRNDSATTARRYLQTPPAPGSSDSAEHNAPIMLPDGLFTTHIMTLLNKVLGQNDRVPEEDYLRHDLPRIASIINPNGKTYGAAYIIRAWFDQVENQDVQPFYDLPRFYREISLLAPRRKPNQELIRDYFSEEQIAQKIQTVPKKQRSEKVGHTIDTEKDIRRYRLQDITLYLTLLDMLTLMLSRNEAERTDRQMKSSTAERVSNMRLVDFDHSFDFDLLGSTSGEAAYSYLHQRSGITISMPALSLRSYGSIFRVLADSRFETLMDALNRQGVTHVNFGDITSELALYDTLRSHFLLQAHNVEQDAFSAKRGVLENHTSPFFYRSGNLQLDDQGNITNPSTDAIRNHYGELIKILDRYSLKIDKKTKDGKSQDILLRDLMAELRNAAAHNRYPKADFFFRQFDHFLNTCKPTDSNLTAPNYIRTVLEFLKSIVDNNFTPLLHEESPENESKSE
The procedure: as §1, §2, §3

In series [4] the target is T4, Cas13m.2 (metagenome).
T4 chain: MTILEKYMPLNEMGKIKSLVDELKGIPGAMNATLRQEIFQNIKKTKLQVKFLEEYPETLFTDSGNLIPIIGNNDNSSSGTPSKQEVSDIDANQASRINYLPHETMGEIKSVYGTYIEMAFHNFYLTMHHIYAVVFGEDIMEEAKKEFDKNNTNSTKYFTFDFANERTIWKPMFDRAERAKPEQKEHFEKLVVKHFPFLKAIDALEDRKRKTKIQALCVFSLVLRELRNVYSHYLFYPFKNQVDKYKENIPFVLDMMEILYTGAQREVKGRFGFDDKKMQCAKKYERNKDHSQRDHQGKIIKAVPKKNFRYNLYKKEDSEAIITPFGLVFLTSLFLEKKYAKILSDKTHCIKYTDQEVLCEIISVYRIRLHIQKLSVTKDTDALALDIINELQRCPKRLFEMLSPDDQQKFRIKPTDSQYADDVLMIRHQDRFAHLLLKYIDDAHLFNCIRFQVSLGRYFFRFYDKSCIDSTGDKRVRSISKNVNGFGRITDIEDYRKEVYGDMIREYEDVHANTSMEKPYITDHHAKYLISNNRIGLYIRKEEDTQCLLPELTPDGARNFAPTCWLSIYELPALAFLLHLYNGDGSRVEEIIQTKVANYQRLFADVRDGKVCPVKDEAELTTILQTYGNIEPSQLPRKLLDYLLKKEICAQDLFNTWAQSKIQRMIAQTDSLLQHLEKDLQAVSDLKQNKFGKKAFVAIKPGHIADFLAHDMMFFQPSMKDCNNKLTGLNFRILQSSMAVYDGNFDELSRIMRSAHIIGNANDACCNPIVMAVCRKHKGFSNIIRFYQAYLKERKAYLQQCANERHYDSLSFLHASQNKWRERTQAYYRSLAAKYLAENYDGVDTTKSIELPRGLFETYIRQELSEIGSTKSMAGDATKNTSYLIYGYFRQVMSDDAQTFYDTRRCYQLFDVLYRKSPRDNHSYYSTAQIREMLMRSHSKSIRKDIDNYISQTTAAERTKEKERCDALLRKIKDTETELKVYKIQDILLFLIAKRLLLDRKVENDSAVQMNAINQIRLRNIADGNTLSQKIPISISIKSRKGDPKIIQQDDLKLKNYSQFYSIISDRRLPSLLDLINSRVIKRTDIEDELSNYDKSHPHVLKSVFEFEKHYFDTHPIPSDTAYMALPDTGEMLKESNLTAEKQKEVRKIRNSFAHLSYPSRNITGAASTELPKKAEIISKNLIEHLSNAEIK
The procedure: as §1, §2, §3

B1: AQp1 gRNA CasRfg.2-r (guide-DR) ; AQp1 mRNA site (20 nt guide) (ssRNA ; ssRNA)
RNA 1: GAAGACAAAGAGGGUCGUGGGGUUUUACACCCGUGUAAAACUACACAGUUCUAAAAC
RNA 2: CCACGACCCUCUUUGUCUUC
B1: in series [1], the activity stood at 0.67 relative mRNA level.

B2: AQp1 gRNA Cas13m.5-r (DR-guide) ; AQp1 mRNA site (20 nt guide) (ssRNA ; ssRNA)
RNA 1: GUUGUGUGUGCCUUUCAAAUUGAAGGCGUUCCCAACGAAGACAAAGAGGGUCGUGG
RNA 2: CCACGACCCUCUUUGUCUUC
In series [2], B2 returned an activity of 0.74 relative mRNA level.

B3: AQp1 gRNA Cas13m.3-r (DR-guide) ; AQp1 mRNA site (20 nt guide) (ssRNA ; ssRNA)
RNA 1: GUUGUAGAAGCCGUUCAUUCGGGACGGUAUGACAACGAAGACAAAGAGGGUCGUGG
RNA 2: CCACGACCCUCUUUGUCUUC
As for B3, the activity in series [3] was found to be 0.78 relative mRNA level.

B4: AQp1 gRNA Cas13m.2-r (DR-guide) ; AQp1 mRNA site (20 nt guide) (ssRNA ; ssRNA)
RNA 1: GUUGUAGAUGACCUCGUUUUGGAGGGGAAACACAACGAAGACAAAGAGGGUCGUGG
RNA 2: CCACGACCCUCUUUGUCUUC
Turning to B4, the activity in series [4] was 0.83 relative mRNA level.
